The results in this text go back to article PMC5610937 (Journal of molecular biology, 2017).

The target in test [1] is T1, Fc-hROR2 protein (Homo sapiens (Human)., UniProt Q01974). The test is described as follows: SPR.
In test [2] the target is mouse ROR2 extracellular domains displayed on HEK293F cells (Mus musculus (Mouse)., UniProt Q9Z138). The test is described as follows: flow cytometry on cells.
Test [3] concerns the target human ROR1 ectopically and stably expressed on mouse pre-B cell line 63-12 (Homo sapiens (Human)., UniProt Q01973). The test is described as follows: flow cytometry on cells.
Test [4] concerns the target human ROR2 ectopically and stably expressed on mouse pre-B cell line 63-12 (Homo sapiens (Human)., UniProt Q01974). The test is described as follows: flow cytometry on cells.
The target of test [5] is human Fc fusion protein of the extracellular domain of mouse ROR1 (Mus musculus (Mouse)., UniProt Q9Z139). The test is described as follows: ELISA.
Sequence of human Fc fusion protein of the extracellular domain of mouse ROR1 (Q9Z139 30-406): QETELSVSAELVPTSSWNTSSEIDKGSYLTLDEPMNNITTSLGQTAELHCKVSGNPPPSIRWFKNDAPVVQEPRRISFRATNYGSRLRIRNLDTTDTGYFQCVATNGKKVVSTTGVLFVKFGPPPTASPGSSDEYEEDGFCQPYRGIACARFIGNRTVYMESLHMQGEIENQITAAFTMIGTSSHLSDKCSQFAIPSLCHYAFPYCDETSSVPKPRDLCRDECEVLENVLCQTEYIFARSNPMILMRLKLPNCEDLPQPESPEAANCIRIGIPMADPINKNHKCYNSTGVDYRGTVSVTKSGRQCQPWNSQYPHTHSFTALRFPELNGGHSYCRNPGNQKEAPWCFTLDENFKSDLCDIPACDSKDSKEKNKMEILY
The target in test [6] is T1, Fc-hROR2 protein. The test is described as follows: ELISA.

Sequence of mouse ROR2 extracellular domains displayed on HEK293F cells (Q9Z138 34-403): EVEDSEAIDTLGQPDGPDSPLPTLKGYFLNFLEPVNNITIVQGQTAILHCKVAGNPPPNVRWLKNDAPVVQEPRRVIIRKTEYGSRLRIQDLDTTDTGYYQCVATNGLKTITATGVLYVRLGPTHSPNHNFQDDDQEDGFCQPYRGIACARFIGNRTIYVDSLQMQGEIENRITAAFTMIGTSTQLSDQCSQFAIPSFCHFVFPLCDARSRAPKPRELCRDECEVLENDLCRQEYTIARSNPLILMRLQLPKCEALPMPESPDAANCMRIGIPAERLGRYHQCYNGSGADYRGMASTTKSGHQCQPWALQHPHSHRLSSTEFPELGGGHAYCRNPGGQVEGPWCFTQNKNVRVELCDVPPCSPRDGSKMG

B1: chimeric rabbit/human anti-human ROR2 Fab XBR2-433 (Fab, V domains shown)
VH: QSVKESEGGLFKPTDTLTLTCTVSGFSLSTYGVSWVRQAPGNGLEWIGAIGSSGSANYASWAKDRSTITRNTNLNTVTLKMTSLTAADTATYFCARDGYYSSGWGPYFNIWGPGTLVTISS
VL: SFVLTQPASVQVNLGQTVSLTCTADTLSRSYASWYQQKPGQAPVLLIYRDTSRPSGVPDRFSGSSSGNTATLTISGAQAGDEADYYCATSGGSGSNPQYVFGGGTQLTVT
With B1, the Kd with Fc-hROR2 protein [1] was determined as 2.28 µM. In addition, the binding result in test [2] was “binds”; in test [3], “no binding”.

B2: chimeric rabbit/human anti-human ROR2 Fab XBR2-TOP72 (Fab, V domains shown)
VH: QEQLEESGGRLVTPGTPLTLTCTVSGIDLSSNAMSWVRQAPGKGLEYVGFINGGGGVHYASWARGRFTISKTSTTVDLKITSPTTEDTATYFCARAGTTYYTSFNLWGPGTLVTISS
VL: QFVLTQSPSASAALGSSAKLTCTLSSAHKTYTIAWYQQQQGEAPRLLMMLRTDGSYTKGTGVPDRFSGSSSGADRYLIISSVQADDAAGYYCGADYSGGYVFGGGTQLTVT
For the molecule B2, in the test with Fc-hROR2 protein [1], binding was characterised by a dissociation constant (Kd) of 4.15 µM. The values for the binding result in test [2] and in test [3] were “binds” and “no binding”, respectively.

B3: chimeric rabbit/human anti-human ROR1 Fab ERR1-TOP43 (Fab, V domains shown)
VH: QSLEESGGRLVTPGTPLTLTCTVSGFSLSSYWMSWVRQAPGKGLEWIGAIYGSGNTYYASWAKGRFTISKTSTTVDLKITSPTTEDTATYFCARDVHSTATDLWGPGTLVTISS
VL: SYELTQLPSVSVSLGQTARITCGGNNIGSKAVNWYQQKPGLAPGLLIYNDDERPSGVPDRFSGSNSGDTATLTISGAQAGDEADYYCQLWDSSAGAYVFGGGTQLTVT
B3: the binding result in test [4] is given as “no binding (tested: 10 μg/mL)”; in test [5], “no binding (tested: 100 ng Fab in 50 μL)”; in the test with Fc-hROR2 protein [6] it was “no binding (tested: 100 ng Fab in 50 μL)”.

B4: chimeric rabbit/human anti-human ROR1 Fab ERR1-316 (Fab, V domains shown)
VH: QEQLEESGGRLVTPGTPLTLTCTASGFFLSSYYVSWVRQAPGKGLEWIGAIGTGGSAYYASWAKSRSTITRNTNLSTVTLKMTSLTAADTATYFCARDHPNYGMDLWGPGTLVTVSS
VL: SYELTQLPSVSVSLGQTARITCGGNSIGSKAVNWYQQKPGLAPGLLIYDDDERPSGVPDRFSGSNSGDTATLTISGAQAGDEADYYCQLWDSSTGAYAFGGGTQLTVT
As for B4, the binding result in test [4] is “no binding (tested: 10 μg/mL)”; in test [5] it was “no binding (tested: 100 ng Fab in 50 μL)”; with Fc-hROR2 protein [6], “no binding (tested: 100 ng Fab in 50 μL)”.

B5: chimeric rabbit/human anti-human ROR1 Fab ERR1-TOP15 (Fab, V domains shown)
VH: QEQLVESGGRLVTPGGSLTLTCAASGFSPSSYWMSWVRQAPGKGLEWIGAIYVDSGSAYYASWAKSRFTISKTSSTTVDLKMTSLTTEDTAIYFCARDGWGSDVWGPGTLVTISS
VL: SYELTQLPSVSVSLGQTARITCGGNSIGSKAVHWYQQKPGLAPGLLIYDDDERPSGVPDRFSGSNSGDTATLTISGAQAGDEADYYCQLWDSSAGAYVFGGGTQLTVT
Turning to B5, the binding result was “no binding (tested: 10 μg/mL)” in test [4], “no binding (tested: 100 ng Fab in 50 μL)” in test [5] and “no binding (tested: 100 ng Fab in 50 μL)” in the test with Fc-hROR2 protein [6].

B6: chimeric rabbit/human anti-human ROR1 Fab ERR1-301 (Fab, V domains shown)
VH: QEQLEESGGGLVTPGGSLTLTCTASGFTISTYHMSWVRQAPGKGLEWIGSIYAGSGSTYYASWVNGRFTISSNTTQNTVSLQMNSLTVADTATYFCARDHPSYGMDLWGPGTLVTVSS
VL: SYELTQLPSVSVSLGQTARITCGGNSIGSKAVNWYQQKPGLAPGLLIYDDDERPSGVPDRFSASNSGDTATLTISGAQAEDEADYYCQLWDSSAVAYVFGGGTQLTVT
Regarding B6, the binding result in test [4] is reported as “no binding (tested: 10 μg/mL)”; in test [5], “no binding (tested: 100 ng Fab in 50 μL)”; with Fc-hROR2 protein [6], “no binding (tested: 100 ng Fab in 50 μL)”.

B7: chimeric rabbit/human anti-human ROR1 Fab ERR1-403 (Fab, V domains shown)
VH: QEQLKESGRGLVQPGGSLKLSCKASGFDFSGWYMTWVRQAPGKGLEWIGTIGTTKGRTYYASWVNGRFTISSNAQNTVDLQMNSLTAADRATYFCVRGSDYFDLWGPGTLVTISS
VL: SYELTQLPSVSVSLGQTARITCGGNSIGSKAVNWYQQKPGLAPGLLIYDDDERPSGVPARFSGSNSGDTATLTISGAQAGDEADYYCQLWDSSAGAYVFGGGTQLTVT
In the case of B7, the binding result in test [4] is recorded as “no binding (tested: 10 μg/mL)”; in test [5] it was “no binding (tested: 100 ng Fab in 50 μL)”; with Fc-hROR2 protein [6], “no binding (tested: 100 ng Fab in 50 μL)”.

B8: chimeric rabbit/human anti-human ROR1 Fab ERR1-TOP54 (Fab, V domains shown)
VH: QSLEESGGRLVTPGTPLTLTCTASGFSLSDYYMSWVRQAPGEGLEWIGTIYGGSGNTWYATWAKGRFTISKTSTTVDLKITSPTTEDTATYFCARDFGLSTGGLWGPGTLVTISS
VL: SYELTQLPSVSVSLGQTARITCGGNSIGSKAVNWYQQKPGLAPGLLIYDDDERPSGVPDRFSGSNSGDTATLTISGAQAGDEADYYCQLWDSSARAFVFGGGTQLTVT
B8: the binding result in test [4] is recorded as “no binding (tested: 10 μg/mL)”; in test [5], “no binding (tested: 100 ng Fab in 50 μL)”; with Fc-hROR2 protein [6], “no binding (tested: 100 ng Fab in 50 μL)”.

B9: chimeric rabbit/human anti-human ROR1 Fab ERR1-409 (Fab, V domains shown)
VH: QEQLVESGGRLVTPGGSLTLTCTASGFSLSSYYMGWVRQAPGKGLEWIGTIYGGSGSTWYASWVKGRFTISKTSTAVDLKITSLTTEDTATYFCARSYPGWTTEPYFDIWGPGTLVTVSS
VL: QFVLTQPQSVSGSLGQTVSISCNRDSGNIEDYYVHWYQQHPGKAPTTVIYNDDQRPSGVPDRFSGSIDSTSNSASLTITGLLAEDEADYYCLSSDSSAYVFGGGTQLTVT
Turning to B9, the binding result in test [4] was “no binding (tested: 10 μg/mL)”; in test [5], “no binding (tested: 100 ng Fab in 50 μL)”; with Fc-hROR2 protein [6], “no binding (tested: 100 ng Fab in 50 μL)”.

B10: chimeric rabbit/human anti-human ROR1 Fab ERR1-306 (Fab, V domains shown)
VH: QEQLKESGGGLVQPGGSLKLSCKASGFDLSNYGVSWVRQAPGKGLEWIGYIDPTFDYTYYASWVNGRFSISRENTQNTVSLQINSLTPADTATYFCARWVYGVDDYGDGNWLDLWGQGTLVTISS
VL: QFVLTQSPSVSAALGASAKLTCTLSSAHKTYTIDWYQQQQGEAPRYLMELKSDGSYTKGTGVPDRFSGSSSGADRYLIIPSVQADDEADYYCGTDYSGGYVFGGGTQLTVT
In the case of B10, the binding result is given as “no binding (tested: 10 μg/mL)” in test [4], “binds” in test [5] and “no binding (tested: 100 ng Fab in 50 μL)” with Fc-hROR2 protein [6].

B11: chimeric rabbit/human anti-human ROR1 Fab ERR1-TOP22 (Fab, V domains shown)
VH: QSLEESGGRLVTPGTPLTLTCTVSGFSLSSYYMSWVRQAPGKGLEWIGTISSSGSTYYASWVKGRFTISKTSTTVDLKMTSLTTEDTATYFCARDLDYDMDLWGPGTLVTVSS
VL: SYELTQLPSVSVSLGQTARITCGGNSIGSKAVHWYQQKPGLAPGLLIYNDDERPSGVPDRFSGSNSGDTATLTISGAQAGDEADYYCQLWDNNAAVFGGGTQLTVT
For B11, the binding result in test [4] is listed as “no binding (tested: 10 μg/mL)”; in test [5], “binds”; with Fc-hROR2 protein [6], “no binding (tested: 100 ng Fab in 50 μL)”.

B12: chimeric rabbit/human anti-human ROR1 Fab ERR1-TOP4 (Fab, V domains shown)
VH: QSVEESGGRLVTPGTPLTLTCTASGIDLSRYAVNWVRQAPGKGLEWIGVISGSGTTYYASWAKGRFTISKTSTTVDLKITSPTTEDTATYFCARGWATDGIFDYDDTFNLWGPGTLVTVSS
VL: SYELTQLPSVSVSLGQTARITCGGDSIESKAVHWYQQKPGLAPGLLVYNDDERPSGVPDRFSGSNSGDTATLTISGAQAGDEADYYCQLWDGSAYVFGGGTQLTVT
Regarding B12, the binding result in test [4] is “no binding (tested: 10 μg/mL)”; in test [5], “no binding (tested: 100 ng Fab in 50 μL)”; in the test with Fc-hROR2 protein [6] it was “no binding (tested: 100 ng Fab in 50 μL)”.

B13: chimeric rabbit/human anti-human ROR1 Fab XBR1-402 (Fab, V domains shown)
VH: QEQQKESGGGLFKPTDTLTLTCTASGFDISSYYMSWVRQAPGNGLEWIGAIGISGNAYYASWAKSRSTITRNTNLNTVTLKMTSLTAADTATYFCARDHPTYGMDLWGPGTLVTVSS
VL: SYELTQLPSVSVSLGQTARITCEGNNIGSKAVHWYQQKPGLAPGLLIYDDDERPSGVPDRFSGSNSGDTATLTISGAQAGDEADYYCQVWDSSAYVFGGGTQLTVT
B13: the binding result is listed as “no binding (tested: 10 μg/mL)” in test [4], “no binding (tested: 100 ng Fab in 50 μL)” in test [5] and “no binding (tested: 100 ng Fab in 50 μL)” with Fc-hROR2 protein [6].
